Key:
rat C3b (rat) [1] = biological target: rat C3b (rat)
rat C3b (rat) [2] = test: SPR; Biacore 3000; rat C3b (1000RU) covalently coupled to the chip through its internal thioester after deposition by a convertase on a nidus of human C3b (50RU); different concentrations of the sCrry proteins flowed over; KD from steady state analysis

Substance | IH50 of inhibition of AP-mediated haemolysis of guinea pig erythrocytes by rat serum, in terms of Crry molarity (rat C3b (rat) [1]) [nM] | Kd (rat C3b (rat) [2]) [µM]
rCrry-Ig (Fc fusion) | 168 | 
soluble recombinant form of rat Crry containing the four N-terminal SCRs (domain or fragment) |  | 5.1
